Laboratory results from the supplement of paper PMC10126150.
± gives the standard deviation of the averaged measurements.

Test system: ATP
Test: switch fluorescence ratio, 500 uM ATP over buffer (Cy3 cluster intensity, sum of 5 cycles each) (fold (ratio)); higher = stronger signal-on switching upon ATP binding; sequences stand for … in TCGTCGGCAGCGTCAGATGTGTATAAGAGACAGTTTTTTTTTTTTTTTTTTTTTTTTT…TC
Details: aptamer strand: ATP DNA aptamer (quencher-CACCTGGGGGAGTATTGCGGAGGAAGG + anchor), 100 nM annealed; ATP concentration: 500 uM
Summary of the method: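 Imaging in selection buffer was followed by imaging after 15 min with 500 uM ATP at 22 °C, for Cy3-labelled switching-strand clusters annealed to 100 nM quencher-labelled ATP aptamer on a modified Illumina MiSeq flow-cell. Five of these buffer/ATP cycles ran, separated by NaOH stripping and re-annealing. The fluorescence ratio per cluster is summed target-cycle over summed buffer-cycle Cy3 intensity, averaged per switch-domain sequence; clusters outside 100-1000 RFU were removed.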
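Further: ATP exposure 15 min at 22 °C before imaging.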

Sequence | switch fluorescence ratio
CGTATATTAG | 0.96 ± 0.014
CGTATCAATT | 1.003 ± 0.004
CGTATCGTGA | 1.01 ± 0.041
CGTATGACTA | 0.984 ± 0.05
CGTATGGGGA | 1 ± 0.023
CGTATTATGG | 0.998 ± 0.05
CGTATTCTGA | 0.966 ± 0.064
CGTATTGCCA | 1 ± 0.025
CGTATTTAGT | 0.98 ± 0.035
CGTATTTGGA | 0.985 ± 0.046
CGTATTTTAG | 1 ± 0.029
CGTCAATTTA | 1.12 ± 0.12
CGTCACTAAT | 1.21 ± 0.25
CGTCAGAGCG | 0.9802 ± 0.008
CGTCAGTGCA | 1.01 ± 0.024
CGTCGACGGG | 1.02 ± 0.054
CGTCGGAGGC | 0.986 ± 0.019
CGTCGGCAAA | 3.42 ± 0.21
CGTCGTAGGG | 0.985 ± 0.03
CGTCTGTGGG | 0.9844 ± 0.0041
CGTGAACATA | 1.02 ± 0.034
CGTGAATTGT | 1.044 ± 0.01

Sequence | switch fluorescence ratio
CGTGACATTG | 1.01 ± 0.013
CGTGAGATTA | 0.9846 ± 0.0009
CGTGAGCTAA | 1.41 ± 0.19
CGTGATAAGT | 1.02 ± 0.021
CGTGATCAGC | 1.017 ± 0.0098
CGTGCATGAG | 1.01 ± 0.02
CGTGCCCAGC | 1.01 ± 0.025
CGTGCGGATG | 1.02 ± 0.0057
CGTGCGGGGG | 1.01 ± 0.035
CGTGCTAGAA | 1.0154 ± 0.001
CGTGCTAGTC | 1.04 ± 0.055
CGTGCTCAGA | 0.996 ± 0.025
CGTGCTGGAC | 1.091 ± 0.0065
CGTGGAGGGG | 1.04 ± 0.013
CGTGGAGTCG | 0.989 ± 0.1
CGTGGATAGT | 0.955 ± 0.03
CGTGGCCTGT | 0.994 ± 0.029
CGTGGCGGAT | 0.9709 ± 0.0092
CGTGGCGGTT | 1.09 ± 0.13
CGTGGGATAA | 1.01 ± 0.023
CGTGGGCGGT | 0.9807 ± 0.0031
CGTGGGGAGC | 1.06 ± 0.11

Sequence | switch fluorescence ratio
CGTGGGGCGG | 0.999 ± 0.016
CGTGGGGGGC | 1.01 ± 0.02
CGTGGGGGTC | 1.01 ± 0.013
CGTGGGGGTT | 0.973 ± 0.038
CGTGGGGTCA | 0.982 ± 0.024
CGTGGTAGGG | 0.992 ± 0.035
CGTGGTGCGA | 1.02 ± 0.015
CGTGGTTTGC | 1.03 ± 0.053
CGTGTATTGG | 0.987 ± 0.013
CGTGTATTTC | 1.02 ± 0.022
CGTGTCACTT | 1.01 ± 0.023
CGTGTGGGTT | 0.993 ± 0.011
CGTGTGTGGT | 0.994 ± 0.024
CGTGTGTTGA | 1.01 ± 0.013
CGTGTTGGAC | 1.016 ± 0.0032
CGTGTTGGAG | 0.969 ± 0.011
CGTGTTTCGG | 0.97715 ± 0.00018
CGTGTTTTCC | 1.022 ± 0.0015
CGTGTTTTCT | 0.99 ± 0.031
CGTTAAAATA | 1.01 ± 0.062
CGTTACTCCG | 1.5 ± 0.16
CGTTAGTAAA | 0.9862 ± 0.0035

Sequence | switch fluorescence ratio
CGTTATACAG | 1.01 ± 0.026
CGTTATATTC | 1.08 ± 0.031
CGTTCAGCT | 1.01 ± 0.035
CGTTCAGTTC | 0.972 ± 0.053
CGTTCAGTTT | 0.9929 ± 0.0028
CGTTCATTGT | 0.9942 ± 0.0098
CGTTCGGAGG | 0.991 ± 0.037
CGTTCGTTCG | 0.989 ± 0.015
CGTTGACGCG | 1.02 ± 0.016
CGTTGAGATC | 1.06 ± 0.059
CGTTGAGGAC | 1.024 ± 0.0053
CGTTGAGTCG | 0.992 ± 0.06
CGTTGATGTG | 0.99 ± 0.045
CGTTGGAGCG | 1 ± 0.03
CGTTGGGCTC | 1.019 ± 0.0051
CGTTGGGGGT | 0.978 ± 0.022
CGTTGGTGGC | 0.9457 ± 0.0066
CGTTGGTGTG | 1 ± 0.028
CGTTGTATGG | 1.01 ± 0.046
